The nanobody polyreactivity screen of Harvey et al. (2022)

Test: yeast display, Sf9 membrane polyspecificity reagent, FACS + sequencing; frameworks hold sequencing errors
In short: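 Using colony PCR, genes from sorted yeast display clones were amplified, then sequenced on MiSeq at 2 × 250 and filtered by CDR length. The clones had been stained with 10% biotinylated, detergent-solubilized Sf9 membrane reagent for 1 hour at 4 °C and sorted by FACS into low and high (top ~1%) gates on anti-HA and streptavidin fluorescence. Polyreactivity labels come from the gate of origin.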

QVQLVESGGGLVQAGGSLRLSCAASGSTFRGYALGWYRQAPGKERELVATISGSDGTTYYADSVKGRFTISRDNAKNTVYLQMNSLKPEDTAVYYCAAGETFEMYYWGQGTQVTVSS
polyreactivity (PSR sort gate): low polyreactivity

QVQLVESGGGLVQAGGSLRLSCAASGSIFWVYAMGWYRQAPGKERELVAAISSSGGRTYYADSVKGRFTISRDNAKNTVYLQMNSVKPEVTAVYYCAARWKTGYNYWGQGTQVTVSS
polyreactivity (PSR sort gate): high polyreactivity

QVQLVESGGGLDQAGCSLRLSCAASGRIFYVYDMGWYRQAPGKERELVATITSSGDGTYYADSVKGRFTSSRDNAKNTVYLQMNSLKPEDTAVYYCARRYFVRFVNPPYYYWGHGTQVTVSS
polyreactivity (PSR sort gate): low polyreactivity

QVQLVESWGGLVQAGGSLRLSCAASGSTFAVNAMGCYRQAPGKERELVDAITVSGGSTDYAYSVKRPFTISRDNAKYSVYLQLNRLKPEDTGVYYCADVRMKYYIYGGYDYWGQGTQVNVSS
polyreactivity (PSR sort gate): low polyreactivity

QVQLVESGGGLGQAGGSLRLSCAASGSTFPYYAMGWSRPAPGKERELVAVITSSGSRTYYADSVKGRFSMSRDKAKNTVYLQMNSLKPEETAVYYCARDTRYYRPYRSQYDYWGQGTQVTVSS
polyreactivity (PSR sort gate): high polyreactivity

QVQLVESGGGLVQAGGSLRLSCAASGRTFYYNAMGWDRQAPGKESELVARITYRSGRTNYADSVKGRFTISRDNAKNTVYLQMNSLKPEDTAVYYCAAAWWCGAGRTRYEYWGQGTQVTVSS
polyreactivity (PSR sort gate): high polyreactivity

QVQLVESGGGLVQAGGSLSLSCAASGRTFWLNSMGWYRQAPGKERELVATISSSSGSTTYADSVKGRFTISRDNAKNTVYLQMNSLKPEDTAVYYCAADWSDDVPGYDYWGQGTQVTVSS
polyreactivity (PSR sort gate): low polyreactivity

QVQLVESGGRLVQAGGSLSLSCAASGRTFGGYNMGWYRQAPGKERELVAAINWSGTTYYADSVKGRFTISRDNAKNTVYLQMNSLKPVDTAVYYCAASLVSYYGLARDSVDYWGQGTQVTVSS
polyreactivity (PSR sort gate): low polyreactivity

QVHLVESGGVLVQAGGSLRLSCAASGSIYESYVMGWYRQAPRKERELVASISSGGSTYYADSVKGRFTISRDNAKNTVYFQNNSLKQEDTAGYYCAANYDGGYLDYEAGYRLEYDFWGQGTQVTVSS
polyreactivity (PSR sort gate): low polyreactivity

QDPLVESGGLLVQAGGSLRLSCAASGFTFSRYAMGWYRQAPGKERELVAVIDNSGGTTYYADSVKGRFTISRDNAKNTVYLQMNSLKPEDTAVYYCAAKRIPRYYSASDYWGQGTQVTVSS
polyreactivity (PSR sort gate): low polyreactivity

QVQLVESGGGLVQAGGSLRLSCAASGRTFFWYAMGWYRQAPGKERDLVAAIRGAGRTNYADSVKGRFTISRYNAKNTVYLQMNSLKPEDTAVYYCAAQHYPWRRYDYWGQGTQVTVSS
polyreactivity (PSR sort gate): high polyreactivity

QVQLVESGGGLVQAGGSLRLSCAASGSIFYRNAMGCYIQAPGKERELVAAITSSGVSTYYADSVKGRFTISRDNAKNTVYLQMNSLKPEDTAVYYCAARSVYTGRPYYYWGQGTQVTVSS
polyreactivity (PSR sort gate): high polyreactivity

QVQLVESGRGLVQAGGSLRLSCAAAGSTFVSYDLGWSRQAPGKERELLADISWSGVSTDADSVKGRFTLSRDNAKNTVYLQMNSLKPEDPAVYYCAKDSDLYQRGGYYWGQGTQVTVSS
polyreactivity (PSR sort gate): low polyreactivity

QVQLVESGGGLVQAGGSLRLSCAASGLTITKNVMGWYRQAPGKERELVAVISRSGGSTYYADSVKGRFTISRDNAKNTVYLQMNSLKPEDTAVYYCNVKGPGPSRGNYWGQGTQVTVSS
polyreactivity (PSR sort gate): low polyreactivity

QVQLVESGGGLVQAGGSLRLSCAASGSTFSGNAMGWDRQAPGKESELVAAINSVRTYYADSVKGRFTISRDNAKNTVYLQMNSLKQEDTAVYYCNAEGYVSLSQYGVRRHSDYWGQGTQVNVSS
polyreactivity (PSR sort gate): high polyreactivity

QVQLVESGGGLVQAGGSLRLSCAASGITFPKYAMGWYRQAPGKERELVAAITKSGGSTYYADSVKGRFTISRDNAKNTVYLQMNSLKPEDTAVYYCAVVSRGITKYDYWGQGTQVTVSS
polyreactivity (PSR sort gate): high polyreactivity

QVQLVESGGGLVQAGGSLRLSCAASGRTFRFYAMGWYRQAPGKERELVAGITGGGSTNYADSVKGRFTISRDNAKNTVYLQMNSLKPEDTAVYSCNATIRYYRRGKLYDYWGQGTQVTVSS
polyreactivity (PSR sort gate): high polyreactivity

QVQLVESGGVLVQAGGSLRISCAASGSTFYSYDMGWYRQAPGKERELVAAISSSSGSTYYADSVKARFTISRDNAKNTVYLQMNSLKPEDTAVYYCKRGRRYSHKYDYWGQVTQVTVSS
polyreactivity (PSR sort gate): high polyreactivity

QVQLVESGGGLVQAGGSLRLSCAASGRTFGYYAMGWYRQAPGKEREFVAAISWSGGSTYYADSVKGRFTISRDNAKNTVYLQMNSLKPEDTAVYYCATDTTYYAGSWYGYWGQGTQVTVSS
polyreactivity (PSR sort gate): low polyreactivity

QVQVVESGGGLVKAGGSLRISCAASGRSFGANVMGWYRQAPGKEREFVAAISSSGGSTYYADSVKGRFTISRDNAKNTVYLQMNSVKPEDTAVYYCAAGGWPYSGGWFFQPNYDYWGQGTQVTVSS
polyreactivity (PSR sort gate): low polyreactivity

QVQLVESGGGLVQAGGSLRLSCAASGRILDYNAMGWYRQAPGKERELVAAITYTGGDTYYADSVKGRFTISRDNAKNTVYLQMNSLKPEDTAVYYCSADFGPYYRFDYWGQGTQVTVSS
polyreactivity (PSR sort gate): low polyreactivity

QVQLVESGGALVQAGGSLRLSCAASGFTFAWYAMGWYRQAPGKERELVAAISRSGGSTYYADSVKGRFTISRDNAKNTVYLQMNSLKPEDTAVYYCATRVYSYRKAGWYDYWGQGTQVTVSS
polyreactivity (PSR sort gate): high polyreactivity

QDQLVESVGGLVQAGGSLRLSCAASGRIFWVNAMGWSRQAPGKERELVAAISWTSGSTYYADSVKGRFTISRDNAKNTVYLQMNSLKPEDTAVYYCNKVQSGEYDYWGQGTQVTVSS
polyreactivity (PSR sort gate): high polyreactivity

QVQLVESGGGLVQAGGSLRLSCAASGSIFKYYAMGWYRQAPGKERELDAAISYSGGRTYYADSVKGRFTISRDNAKNTVYLQMNSLKPEDTAVYYCATDYYYRSAKFLGDYWGQGTQVTVSS
polyreactivity (PSR sort gate): high polyreactivity

QVQLVESGGGLVQAGGSLRLSCAASGRIGYNAMGWYRQAPGKERELVAAISSRGGSTYYADSVKGRFTISRDNAKNTVYLQMNSLKPEDTAVYYCNADYEARTRLGEYDYWGQGTQVTVSS
polyreactivity (PSR sort gate): high polyreactivity

QVQLVESGGGLVQAGGSLRLSCAASGRTFWYYAMGWYRQAPGKEREFVAAISWSGGSTYYADSVKGRFTISRDNAKNTVYLQMNSLKPEDTAVYYCAADRYDSSQFYYWGQGTQVTVSS
polyreactivity (PSR sort gate): low polyreactivity

QVQLVESGGGLVQAGGSLRLSCAASGIILVNNAMGWYRQAPGTEREFVAAIRYSAGSTYYADSVKGRFTISRDTAKNTVYLQMNSLKAEDTAVYYCARRWKGGWYEYGYWGQGTQVTVAS
polyreactivity (PSR sort gate): high polyreactivity

QVQLVESGGGLVQAGGSLRLSCAASGSTFPYYVMGWYRQAPGKERELVASIRSNSGRTYYADSVKGRFTISRDNAKNTVYLQMNSLKPEDTAVYYCNAGVPRYAYTYVKGYYWGQGTQVTVSS
polyreactivity (PSR sort gate): high polyreactivity

QDHLVESGGGLVQAGGSLRLSCAASGITFVYYYMGWYRTAPGKERELVAAISSDGSTYYADSVKGRFTISRDNAKNTVYLQMNSLKPEDTAVYYCNAVAIVPYFYVVYDIFDYWGQVTQVTVSS
polyreactivity (PSR sort gate): low polyreactivity

QVQLVESGGGLVHAGGSLRLSCAASGLIFPRYDMGWYRQAPGKELELVAAITSGGGTYYADSVKGRITISRDNAKNTVYLQMNSLIPEDTAVYYCARDHYRHSRFFYRYVYWGQGTQVSVSS
polyreactivity (PSR sort gate): low polyreactivity

QVQLVESGGGLVQAGGSLRLSCAASGSTFGYYAMGWSRQAPGKERELVAAITGSGGSTYYADSVKGRFTISRDNAKNTVYLQMNSLKPEDTAVYYCATSYLLGRYYEYYYWGQGTQVTVSS
polyreactivity (PSR sort gate): high polyreactivity

QVQLVESGGGLVQAGGSLRLSCAASGSIFRVYAMGWYRQAPGKERELVAAITSRGGSTYYADSVKGRFTISRDNAKNTVYLQMNSLKQEDTAVYYCAAAYPYRTGRGYYWGQGTQVTVSS
polyreactivity (PSR sort gate): high polyreactivity

QVQLVESRGGLVQAGGSLRLSFPDSGSTYVKNAMGWYRHAPGKERELVARISYSGGSTYADSVKGRFTISRDNAKNTVYLQMNSLKPEDSAVYYCNARTHNWWDGDGVYSQSLYDYWGQGTQVTVSS
polyreactivity (PSR sort gate): low polyreactivity

QVQLVESGGGLVQAGRNLRLSCAASGRTFYNNVMGWYRQAPGKERELVAAIDWNDGSTYYADSVKGRFTISRDKAKNTVFLQMNSLKPEDTAVYYCAADAYGYGGDSWGQGTQVTVSS
polyreactivity (PSR sort gate): low polyreactivity

QVQLVESGGGLVEAGGSLRLTCAASGSIFTYYAMGWFRPAPGKERELVADITKSGGRTYYADSVKGRFTISRDNAKNTVYLQMYSLKPEDTAVYYCAAYRRNSRWELDYWGHGTQVTVSS
polyreactivity (PSR sort gate): high polyreactivity

QVQRVESGGGLGLAGGSLRLSCAASGITFVLYALGGYRQAPGKERALVASITWDATDTYYADSVKGRFTISRDNAKNTEYIPMNSLKPDDTAVSYCNAAYYNYWWLEYDYWGQGTQVTVSS
polyreactivity (PSR sort gate): high polyreactivity

QVQLVESGGGLVQAGGSLRLSCAASGSIFHRNTMGWYRQAPGKERELVAAIRRGGSTYYADSVKGRFTISRDNAKNTVYLQMNSLKPEDTAVYYCAADFPGEYYYWGQGTQVTVSS
polyreactivity (PSR sort gate): high polyreactivity

QVQLVESGGGLVQAGGSLRLSCAASGSILRSNAMGWYRQAPGKERELVATITNSGGSTYADSVKGCFTISRDNANNTVYLQMNSLKPEDTAVYYCAKAGAGESIAKYDYWGQGTQVTVSS
polyreactivity (PSR sort gate): low polyreactivity

QVQLVESGGGLVQAGGSLRLSCAASGSIFAIYTMGWYRQAPGKVRELVAGITKSGGNTYYADSVKGRFTISRDNAKNTVYLQMNSLKPEDTSVYYCAASQYEYYDGWYRYDYWGQGTQVTVSS
polyreactivity (PSR sort gate): high polyreactivity

QVQLVESGGGLVQAGGSLRLSCAASGLIFRPYAMGWYRQAPGKERELVAGINSGGNTDYADTVKGRFTISRDNAKNTVYLQMNSLKPEDTAVYYCNREYQVTIYDYWGQGSQVTVSS
polyreactivity (PSR sort gate): low polyreactivity

QVQLVESGGGLVQAGGSLSLSFAASGSTFERYAMGWSRQAPGKERELVAAIRASGVRTYYADSVKGRFTISRDNAKNTVNLQMNSLKPEDTAVYYCAAELQRYWGRLYYYWGQGTQVSVSS
polyreactivity (PSR sort gate): high polyreactivity

QVQLVESGGGLVQAGGSLRLSCAASGRTFGRYAMGWYRQAPGKERELVAAISWSGGSTNYADSVKGRFTISRDNAKNTVYLQMISLKPEDTAVYYCAAVTTDGVYAFDYWGQGTQVTVSS
polyreactivity (PSR sort gate): low polyreactivity

QVQLVESGGGLVQAGGSLRLSCAASGRIFRGNAMGWYRQPPGKERELGATITRSGARTYYADSVKGRFTISRDNAKNTVYLQMNSLKPEDTAVYYCAARRVRSYAYDYWGQGTQVTVSS
polyreactivity (PSR sort gate): high polyreactivity
